PMC3365051, “Sequence-Specific Binding of Recombinant Zbed4 to DNA: Insights into Zbed4 Participation in Gene Transcription and Its Association with Other Proteins”

T1: Zbed4 (mouse (cDNA from mouse retinal RNA), UniProt Q80WQ9 1-1168)
T1 sequence: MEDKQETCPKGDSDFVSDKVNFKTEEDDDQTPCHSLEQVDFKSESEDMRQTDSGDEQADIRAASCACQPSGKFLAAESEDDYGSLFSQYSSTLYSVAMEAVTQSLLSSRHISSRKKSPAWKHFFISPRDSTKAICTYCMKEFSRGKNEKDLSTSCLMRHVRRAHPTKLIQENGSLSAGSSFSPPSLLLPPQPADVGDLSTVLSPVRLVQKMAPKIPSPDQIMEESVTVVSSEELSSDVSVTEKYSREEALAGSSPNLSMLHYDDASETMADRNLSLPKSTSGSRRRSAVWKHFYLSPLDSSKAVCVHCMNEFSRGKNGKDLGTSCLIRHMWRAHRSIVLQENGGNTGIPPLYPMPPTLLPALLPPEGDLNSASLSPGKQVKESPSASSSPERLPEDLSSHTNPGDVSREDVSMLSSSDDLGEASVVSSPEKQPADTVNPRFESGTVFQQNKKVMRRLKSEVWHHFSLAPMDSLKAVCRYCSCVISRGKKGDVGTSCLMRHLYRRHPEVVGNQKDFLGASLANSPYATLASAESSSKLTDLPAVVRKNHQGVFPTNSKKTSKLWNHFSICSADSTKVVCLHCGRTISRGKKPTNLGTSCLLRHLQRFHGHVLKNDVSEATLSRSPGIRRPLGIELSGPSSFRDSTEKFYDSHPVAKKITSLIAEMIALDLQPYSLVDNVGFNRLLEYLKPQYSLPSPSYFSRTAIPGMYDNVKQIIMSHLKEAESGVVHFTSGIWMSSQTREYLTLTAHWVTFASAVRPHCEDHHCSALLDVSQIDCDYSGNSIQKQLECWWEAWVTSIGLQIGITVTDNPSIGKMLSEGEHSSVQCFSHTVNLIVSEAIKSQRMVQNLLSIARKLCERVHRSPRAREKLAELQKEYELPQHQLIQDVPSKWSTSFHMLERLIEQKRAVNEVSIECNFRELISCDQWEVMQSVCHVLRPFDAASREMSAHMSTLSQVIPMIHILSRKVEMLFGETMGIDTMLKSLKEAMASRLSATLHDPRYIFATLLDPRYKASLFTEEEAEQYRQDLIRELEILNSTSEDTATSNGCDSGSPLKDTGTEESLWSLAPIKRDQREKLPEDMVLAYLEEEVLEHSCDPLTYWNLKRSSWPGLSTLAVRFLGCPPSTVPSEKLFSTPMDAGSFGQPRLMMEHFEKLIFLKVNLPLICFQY


biological target: T1, Zbed4; experiment: EMSA; 20 ug Zbed4, 0.5 nM oligo in 20 mM HEPES pH 7.5, 150 mM NaCl, 5 mM beta-mercaptoethanol, 5% glycerol, 0.5 mM ascorbic acid, 0.5 mM propyl gallate, 10 uM ZnSO4; conditions: protein: recombinant; tags: C-terminal His8

Binder	binding result
AAAAAGGGGCGGGGCAAAAA (ssDNA) [GC-box1]	binds
AAAAATGGGCGGAATAAAAA (ssDNA) [GC-box2]	no binding
AAAAAAAAAAAAAAAAAAAA (ssDNA) [poly-A (A20)]	no binding
TTTTTTTTTTTTTTTTTTT (ssDNA) [poly-T (called 20-mer, 19 T printed)]	no binding
UUUUUGGGGGGGGGGUUUUU (ssRNA) [poly-ribo-G]	binds
UUUUUCCCCCCCCCCUUUUU (ssRNA) [poly-ribo-C]	no binding
